Tests used:
proNGF [1] = experiment: concentration-dependent ELISA, proNGF coated, apparent KD
Description: FIG. 3: Concentration-dependent ELISA for the detection of the binding of SPC7-E9 to proNGF. The microtiter plate was coated with 10 μg/mi of proNGF. As the detection antibody served an anti-human gamma-II-crystallin antibody-POD conjugate in a dilution of 1:1000. The absorption values presented are mean values of two parallel measurements.

proNGF [2] = experiment: SPR (BIACORE), SPC7-E9 coupled through amino groups to a CM5 chip, proNGF as analyte
Description: FIG. 9: Sensorgrams of the Biacore experiments for the binding of SPC7-E9 to a CM5 chip with proNGF. 280 RU of […] were immobilized and different concentrations of proNGF passed over the chip. As the running buffer served HBS-EP with a flow rate of 30 μl/min.
2.) Furthermore, SPC7-E9 could be coupled unspecifically via surface-exposed amino groups (lysines) by means of NHS/EDC to the carboxyl groups of the BIACORE dextrane matrix in the following manner: The CM5 chip was activated for 7 min with NHS/EDC, and afterwards purified SPC7-E9 (in 20 mM Na phosphate buffer, pH 6.0) was passed over the chip for further 7 min. After the coupling was carried out the remaining reactive groups were deactivated for 7 min with 1 M ethanolamine (pH 8.5). For the analysis of dissociation constants the target proNGF was passed over the chip in different concentrations, the binding was monitored online (FIG. 9), and the curves were subsequently evaluated with the BiaEvaluation Software. […] After kinetic measurements the chip was regenerated with 0.1 glycin (pH 2.2), 10 mM HCl, 10 mM NaOh, 6 M Gua/HCl, 6 M urea and 20% ethanol. In this way, the binding activity of the Affilin™ chip was unchanged even after several regeneration cycles

human IgG Fc = target: T1, human IgG Fc (human); experiment: SPR (BIACORE), IgG Fc immobilised on a CM5 chip, Affilin as analyte
T1 construct: domain: Fc; The ELISAs used human monoclonal IgG Fc (Roche); Kept as one molecule; also called human monoclonal IgG Fc portion (Roche); polyclonal IgG Fc
Description: In BIACORE experiments the dissociation constants of the three Affilin™ variations were determined. For this purpose, approx. 180 RU of human IgG Fc (50 μg/ml in 50 mM Na citrate, pH 5.0) was immobilized on a CM5 chip. Free binding sites were finally inactivated by 1 M ethanolamin (pH 8.5).
Then, at a flow of 30 μl/min, 6 different concentrations (166 nM-1 μM) were passed over the chip for 180 sec. Afterwards, at the same flow the chip was rinsed with HBS, 0.005% Surfactant P20 (Biacore) for 180 sec. From the resulting sensorgrams using the BiaEvaluation Software (Biacore, Uppsala, Sweden) the following dissociation constants of the Affilin™ variations to IgG Fc could be determined: SPC1-A1 with 230 nM, SPC1-A7 with 280 nM and SPC1-G3 with 800 nM. In competition experiments the specific binding of the Affilin™ variations to IgG Fc and not to the chip matrix could be detected (FIG. 2).

BSA = target: T2, BSA (bovine, UniProt P02769 25-607); experiment: concentration-dependent ELISA, detection with anti-gamma-II-crystallin antibody-POD
T2 construct: Control antigen
Description: The binding properties of the purified proteins were now tested as described above in a concentration-dependent ELISA. For this purpose, different concentrations (100 nM-10 μM) of the Affilin™ variations were employed and an anti-gamma-II-crystallin antibody (monoclonal antibody conjugate with POD) was employed as the detection antibody.

T2 sequence (P02769 25-607 limits assumed): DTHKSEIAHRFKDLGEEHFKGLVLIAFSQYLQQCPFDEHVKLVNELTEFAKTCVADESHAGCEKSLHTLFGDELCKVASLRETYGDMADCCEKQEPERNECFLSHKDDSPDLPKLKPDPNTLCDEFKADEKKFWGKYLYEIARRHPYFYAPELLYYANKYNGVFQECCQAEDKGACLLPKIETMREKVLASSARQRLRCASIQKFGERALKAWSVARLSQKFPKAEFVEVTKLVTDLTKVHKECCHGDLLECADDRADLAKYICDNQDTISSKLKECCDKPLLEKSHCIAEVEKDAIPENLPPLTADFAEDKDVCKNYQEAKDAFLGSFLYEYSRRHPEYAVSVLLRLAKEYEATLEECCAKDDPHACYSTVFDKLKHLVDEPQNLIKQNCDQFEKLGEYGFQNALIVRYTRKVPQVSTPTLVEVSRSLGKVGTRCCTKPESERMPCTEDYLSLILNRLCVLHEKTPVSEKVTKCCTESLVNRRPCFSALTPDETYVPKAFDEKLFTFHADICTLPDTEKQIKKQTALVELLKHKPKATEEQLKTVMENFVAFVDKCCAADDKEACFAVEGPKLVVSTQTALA
Sequence of proNGF (P01138 19-241): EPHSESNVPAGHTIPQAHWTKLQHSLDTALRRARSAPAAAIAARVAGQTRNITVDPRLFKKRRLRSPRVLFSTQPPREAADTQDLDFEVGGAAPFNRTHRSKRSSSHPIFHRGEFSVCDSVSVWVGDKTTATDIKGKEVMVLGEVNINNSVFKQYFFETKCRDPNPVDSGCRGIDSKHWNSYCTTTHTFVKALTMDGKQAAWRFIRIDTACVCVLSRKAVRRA

Row | Binder | Kd (proNGF [1]) | Kd (proNGF [2]) | Kd (human IgG Fc) | binding result (BSA)
1 | Affilin variation SPC1-A1 (designed binder, Selected from the human gamma-II-crystallin library CR20) MGFIWFMEDRAFQGRRYDCGTDCPNLQPYFSRCNSIKVKSGCWMIYERPNYQGHRHQYFLRRGEYPDYQQWMGLSDSIRSCCLIPPHSGAYRMKIYDRDELRGQMSELTDDCLSVQDRFHLTEIHSLNVLEGSWILYEMPNYRGRQYLLRPGEYRRFLDWGAPNAKVGSLRRVMDLYA | – | – | 230 nM | no binding (tested: 100 nM-10 µM)
2 | Affilin variation SPC1-A7 (designed binder, Selected from library CR20; has a free cysteine in variable position 4; not shown: C-terminal tag of six histidines 'already present') MGLICFSEDRAFQGRRYMCLTDCPNLQPYFSRCNSINVWSGCWMIYERPNYQGHRHQYFLRRGEYPDYQQWMGLSDSIRSCCLIPPHSGAYRMKIYDRDELRGQMSELTDDCLSVQDRFHLTEIHSLNVLEGSWILYEMPNYRGRQYLLRPGEYRRFLDWGAPNAKVGSLRRVMDLYA | – | – | 280 nM | no binding (tested: 100 nM-10 µM)

Results, then the binder that gave them:

Row | Kd (proNGF [1]) | Kd (proNGF [2]) | Kd (human IgG Fc) | binding result (BSA) | Binder
3 | 200 nM | 1.4 nM | – | – | Affilin variation SPC7-E9 (designed binder, Directed against proNGF; also called SPCJ-E9 (including His6)) MGFICFLEDRAFQGRSYACDTDCPNLQPYFSRCNSISVLSGCWMIYERPNYQGHQYFLRRGEYPDYQQWMGLSDSIRSCCLIPPHSGAYRMKIYDRDELRGQMSELTDDCLSVQDRFHLTEIHSLNVLEGSWILYEMPNYRGRQYLLRPGEYRRFLDWGAPNAKVGSLRRVMDLYLEHHHHHH
4 | – | – | 800 nM | no binding (tested: 100 nM-10 µM) | Affilin variation SPC1-G3 (designed binder, Selected from library CR20) MGSIIFLEDRAFQGRIYGCTTDCPNLQPYFSRCNSIVVQSGCWMIYERPNYQGHRHQYFLRRGEYPDYQQWMGLSDSIRSCCLIPPHSGAYRMKIYDRDELRGQMSELTDDCLSVQDRFHLTEIHSLNVLEGSWILYEMPNYRGRQYLLRPGEYRRFLDWGAPNAKVGSLRRVMDLYA
5 | – | – | – | no binding | human wildtype gamma-II-crystallin (other, UniProt P07316 1-175, looked up, also called human wildtype gamma-crystallin) MGKITFYEDRAFQGRSYECTTDCPNLQPYFSRCNSIRVESGCWMIYERPNYQGHQYFLRRGEYPDYQQWMGLSDSIRSCCLIPPHSGAYRMKIYDRDELRGQMSELTDDCISVQDRFHLTEIHSLNVLEGSWILYEMPNYRGRQYLLRPGEYRRFLDWGAPNAKVGSLRRVMDLY

Source: patent publication US20070248536A1 (SCIL PROTEINS, published 2007)
